Earlier results, collected in patent publication US20260263505A1, “Uses of Compositions Comprising a Prebiotic Component” (Mead Johnson Nutrition Company, priority 2021, published 2026).

Test system: Rats
Conditions: after four weeks of diet, acute inescapable stressor

B1: lactoferrin: multifunctional iron-binding glycoprotein naturally present in milk; test diet of Mika et al. (protein, UniProt P24627 20-708, looked up)
Lactotransferrin: APRKNVRWCTISQPEWFKCRRWQWRMKKLGAPSITCVRRAFALECIRAIAEKKADAVTLDGGMVFEAGRDPYKLRPVAAEIYGTKESPQTHYYAVAVVKKGSNFQLDQLQGRKSCHTGLGRSAGWIIPMGILRPYLSWTESLEPLQGAVAKFFSASCVPCIDRQAYPNLCQLCKGEGENQCACSSREPYFGYSGAFKCLQDGAGDVAFVKETTVFENLPEKADRDQYELLCLNNSRAPVDAFKECHLAQVPSHAVVARSVDGKEDLIWKLLSKAQEKFGKNKSRSFQLFGSPPGQRDLLFKDSALGFLRIPSKVDSALYLGSRYLTTLKNLRETAEEVKARYTRVVWCAVGPEEQKKCQQWSQQSGQNVTCATASTTDDCIVLVLKGEADALNLDGGYIYTAGKCGLVPVLAENRKSSKHSSLDCVLRPTEGYLAVAVVKKANEGLTWNSLKDKKSCHTAVDRTAGWNIPMGLIVNQTGSCAFDEFFSQSCAPGADPKSRLCALCAGDDQGLDKCVPNSKEKYYGYTGAFRCLAEDVGDVAFVKNDTVWENTNGESTADWAKNLNREDFRLLCLDGTRKPVTEAQSCHLAVAPNHAVVSRSDRAAHVKQVLLHQQALFGKNGKNCPDKFCLFKSETKNLLFNDNTECLAKLGGRPTYEEYLGTEYVTAIANLKKCSTSPLLEACAFLTR
stress-evoked cfos mRNA in the dorsal raphe nucleus: reduce
